Data on 48 substances can be found in patent publication US20240158455A1, “MULTIPLE SCLEROSIS ASSOCIATED AUTOANTIGENS, AND USE THEREOF IN THERAPY AND DIAGNOSIS” (NEOGAP Therapeutics AB, priority 2017, published 2024).

For this experiment, the target named is HLA DRB5 01:01 (Homo sapiens, UniProt P01903+Q30154). Nature of the experiment: Competitive binding assay of overlapping peptides to HLA. Particulars: competitive binding to HLA DRB5 01:01, compared with reference H1N1 influenza peptide.
As to “Aa 02-16-SEQ ID NO: 1 (VEAFCATWKLTNSQN; listed as Homo sapiens) [FABP7 #1]”, the Binding affinity result is on record as “+”.
In the case of “Aa 07-21-SEQ ID NO: 1 (ATWKLTNSQNFDEYM; listed as Homo sapiens) [FABP7 #2]” it was “+”; in that of “Aa 12-26-SEQ ID NO: 1 (TNSQNFDEYMKALGV; listed as Homo sapiens) [FABP7 #3]”, “−”.
With “Aa 17-31-SEQ ID NO: 1 (FDEYMKALGVGFATR; listed as Homo sapiens) [FABP7 #4]”, the Binding affinity entry is reported as “++”.
As for “Aa 22-36-SEQ ID NO: 1 (KALGVGFATRQVGNV; listed as Homo sapiens) [FABP7 #5]”, the Binding affinity result is “−”.
“Aa 27-41-SEQ ID NO: 1 (GFATRQVGNVTKPTV; listed as Homo sapiens) [FABP7 #6]”: the Binding affinity entry is “+”.
In the case of “Aa 28-42-SEQ ID NO: 2 (AVITGACDKDSQCGG; listed as Homo sapiens) [PROK2 #1]” it was “−”; in that of “Aa 32-46-SEQ ID NO: 1 (QVGNVTKPTVIISQE; listed as Homo sapiens) [FABP7 #7]”, “−”.
“Aa 33-47-SEQ ID NO: 2 (ACDKDSQCGGGMCCA; listed as Homo sapiens) [PROK2 #2]”: the Binding affinity result is recorded as “−”.
In the case of “Aa 37-51-SEQ ID NO: 1 (TKPTVIISQEGDKVV; listed as Homo sapiens) [FABP7 #8]” it was “−”; in that of “Aa 38-52-SEQ ID NO: 2 (SQCGGGMCCAVSIWV; listed as Homo sapiens) [PROK2 #3]”, “−”.
In the case of “Aa 42-56-SEQ ID NO: 1 (IISQEGDKVVIRTLS; listed as Homo sapiens) [FABP7 #9]” it was “−”; in that of “Aa 43-57-SEQ ID NO: 2 (GMCCAVSIWVKSIRI; listed as Homo sapiens) [PROK2 #4]”, “+”; in that of “Aa 47-61-SEQ ID NO: 1 (GDKVVIRTLSTFKNT; listed as Homo sapiens) [FABP7 #10]”, “+”.
In the case of “Aa 48-62-SEQ ID NO: 2 (VSIWVKSIRICTPMG; listed as Homo sapiens) [PROK2 #5]” it was “+”; in that of “Aa 52-66-SEQ ID NO: 1 (IRTLSTFKNTEISFQ; listed as Homo sapiens) [FABP7 #11]”, “−”; in that of “Aa 53-67-SEQ ID NO: 2 (KSIRICTPMGKLGDS; listed as Homo sapiens) [PROK2 #6]”, “+++”.
Turning to “Aa 57-71-SEQ ID NO: 1 (TFKNTEISFQLGEEF; listed as Homo sapiens) [FABP7 #12]”, the Binding affinity entry is given as “−”.
As for “Aa 58-72-SEQ ID NO: 2 (CTPMGKLGDSCHPLT; listed as Homo sapiens) [PROK2 #7]”, the Binding affinity entry was “−”.
In the case of “Aa 59-69 + 96-99-SEQ ID NO: 2 [PROK2 #15]” it was “−”; in that of “Aa 62-76-SEQ ID NO: 1 (EISFQLGEEFDETTA; listed as Homo sapiens) [FABP7 #13]”, “−”; in that of “Aa 63-77-SEQ ID NO: 2 (KLGDSCHPLTRKNNF; listed as Homo sapiens) [PROK2 #8]”, “−”.
In the case of “Aa 64-69 + 96-104-SEQ ID NO: 2 [PROK2 #16]” it was “+”; in that of “Aa 67-81-SEQ ID NO: 1 (LGEEFDETTADDRNC; listed as Homo sapiens) [FABP7 #14]”, “−”; in that of “Aa 68-82-SEQ ID NO: 2 (CHPLTRKNNFGNGRQ; listed as Homo sapiens) [PROK2 #9]”, “+”.
In the case of Aa 69 + 96-109-SEQ ID NO: 2 [PROK2 #17] it was “−”; in that of “Aa 72-86-SEQ ID NO: 1 (DETTADDRNCKSVVS; listed as Homo sapiens) [FABP7 #15]”, “−”; in that of “Aa 73-87-SEQ ID NO: 2 (RKNNFGNGRQERRKR; listed as Homo sapiens) [PROK2 #10]”, “+”.
Turning to “Aa 77-91-SEQ ID NO: 1 (DDRNCKSVVSLDGDK; listed as Homo sapiens) [FABP7 #16]”, the Binding affinity result is given as “−”.
In the case of “Aa 78-92-SEQ ID NO: 2 (GNGRQERRKRKRSKR; listed as Homo sapiens) [PROK2 #11]” it was “−”; in that of “Aa 82-96-SEQ ID NO: 1 (KSVVSLDGDKLVHIQ; listed as Homo sapiens) [FABP7 #17]”, “−”; in that of “Aa 83-97-SEQ ID NO: 2 (ERRKRKRSKRKKEVP; listed as Homo sapiens) [PROK2 #12]”, “−”.
In the case of “Aa 87-101-SEQ ID NO: 1 (LDGDKLVHIQKWDGK; listed as Homo sapiens) [FABP7 #18]” it was “−”.
For the substance “Aa 88-102-SEQ ID NO: 2 (KRSKRKKEVPFFGRR; listed as Homo sapiens) [PROK2 #13]”, the Binding affinity result was “−”.
In the case of “Aa 92-106-SEQ ID NO: 1 (LVHIQKWDGKETNFV; listed as Homo sapiens) [FABP7 #19]” it was “−”; in that of “Aa 93-107-SEQ ID NO: 2 (KKEVPFFGRRMHHTC; listed as Homo sapiens) [PROK2 #14]”, “+”.
As to “Aa 97-111-SEQ ID NO: 1 (KWDGKETNFVREIKD; listed as Homo sapiens) [FABP7 #20]”, the Binding affinity entry was “−”.
In the case of “Aa 100-114-SEQ ID NO: 2 (GRRMHHTCPCLPGLA; listed as Homo sapiens) [PROK2 #18]” it was “−”; in that of “Aa 102-116-SEQ ID NO: 1 (ETNFVREIKDGKMVM; listed as Homo sapiens) [FABP7 #21]”, “+”.
In the case of “Aa 105-119-SEQ ID NO: 2 (HTCPCLPGLACLRTS; listed as Homo sapiens) [PROK2 #19]” it was “−”; in that of “Aa 106-120-SEQ ID NO: 1 (VREIKDGKMVMVSND; listed as Homo sapiens) [FABP7 #25]”, “−”; in that of “Aa 107-121-SEQ ID NO: 6 (REIKDGKMVMTLTFG; listed as Homo sapiens) [FABP7 #22]”, “−”.
On to “Aa 110-124-SEQ ID NO: 2 (LPGLACLRTSFNRFI; listed as Homo sapiens) [PROK2 #20]”, for which the Binding affinity result was “++”.
In the case of “Aa 111-125-SEQ ID NO: 1 (DGKMVMVSNDNSPFF; listed as Homo sapiens) [FABP7 #26]” it was “+”.
As to “Aa 112-126-SEQ ID NO: 6 (GKMVMTLTFGDVVAV; listed as Homo sapiens) [FABP7 #23]”, the Binding affinity result is listed as “−”.
As for “Aa 115-129-SEQ ID NO: 2 (CLRTSFNRFICLAQK; listed as Homo sapiens) [PROK2 #21]”, the Binding affinity entry is listed as “+”.
In the case of “Aa 116-130-SEQ ID NO: 1 (MVSNDNSPFFLVFFS; listed as Homo sapiens) [FABP7 #27]” it was “−”; in that of “Aa 118-132-SEQ ID NO: 6 (LTFGDVVAVRHYEKA; listed as Homo sapiens) [FABP7 #24]”, “+”.
